Article PMC12333503

Biological target: FLAG-tagged TDP-marginal peptide 20 (TDP-MP20), shortened splicing isoform of TDP-43 (human (cDNA cloned from HEK293T cells))
Experiment: co-IP; HEK293T cells co-overexpressing a FLAG-tagged TDP-43 isoform and FL-Venus; IP with anti-DDDDK (FLAG) antibody, 3 h at 4°C, Protein G Mag Sepharose beads, three low-salt washes and one high-salt wash; Venus signal normalised to FLAG signal in the IP (n = 3)

Sequence of FLAG-tagged TDP-marginal peptide 20 (TDP-MP20), shortened splicing isoform of TDP-43 (human (cDNA cloned from HEK293T cells)) (Q13148 whole entry, canonical isoform): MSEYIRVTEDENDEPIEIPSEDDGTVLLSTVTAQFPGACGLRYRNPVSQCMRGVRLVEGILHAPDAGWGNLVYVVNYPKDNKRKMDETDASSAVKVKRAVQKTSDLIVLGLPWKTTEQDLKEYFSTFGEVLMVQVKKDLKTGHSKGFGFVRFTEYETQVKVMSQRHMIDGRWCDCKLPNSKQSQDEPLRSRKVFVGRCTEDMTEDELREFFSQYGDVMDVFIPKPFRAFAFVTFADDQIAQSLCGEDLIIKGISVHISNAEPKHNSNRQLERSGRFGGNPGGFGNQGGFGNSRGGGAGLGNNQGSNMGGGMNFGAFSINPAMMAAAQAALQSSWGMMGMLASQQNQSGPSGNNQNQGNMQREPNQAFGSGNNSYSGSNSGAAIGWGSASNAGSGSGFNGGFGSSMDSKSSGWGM

fold of co-precipitated FL-Venus (ratio of FL-Venus to FLAG in the IP) relative to FLAG-FL: 5.7 fold
fold of co-precipitated FL-Venus (ratio of FL-Venus to FLAG in the IP) relative to FLAG-MP18: 2.3 fold
Substance: TDP-FL fused to Venus (from UniProt Q13148 1-414) (natural protein)
